Measurements taken from article PMC8113886, “The Rid family member RutC of Escherichia coli is a 3-aminoacrylate deaminase” (The Journal of Biological Chemistry, 2021).

B1: RutC (Escherichia coli K-12) (protein)
chain: MPKSVIIPAGSSAPLAPFVPGTLADGVVYVSGTLAFDQHNNVLFADDPKAQTRHVLETIRKVIETAGGTMADVTFNSIFITDWKNYAAINEIYAEFFPGDKPARFCIQCGLVKPDALVEIATIAHIAK

Columns and labels:
RidA = target: T1, RidA (Salmonella enterica, UniProt Q7CP78); experiment: semicarbazone competition assay, absorbance at […] nm; format: biochemical; settings: imine generated in situ by L-amino acid oxidase from 10 mM L-methionine; 10 uM RidA, 50 mM potassium pyrophosphate pH 8.7, 23 °C
T1 construct: full-length RidA; purification and tag not described here
T1 sequence (Q7CP78 1-128): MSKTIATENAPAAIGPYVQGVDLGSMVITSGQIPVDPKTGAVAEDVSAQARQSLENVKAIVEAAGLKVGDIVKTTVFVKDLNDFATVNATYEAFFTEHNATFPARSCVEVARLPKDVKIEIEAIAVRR

purified protein = substrate: NC=CC(=O)O; experiment: purified protein; format: biochemical, Escherichia coli; settings: 3-AA generated in situ by 5 uM RutB, varied concentration is ureidoacrylate, not 3-AA, spontaneous deamination not subtracted, 3 uM RutC, 40 mM Tris-HCl pH 8.2, 23 °C

| Molecule | semicarbazone competition assay, absorbance at 248 nm (RidA) | Km (purified protein) | Vmax (purified protein) | kcat (purified protein) |
| --- | --- | --- | --- | --- |
| CSCCC(=N)C(=O)O [imino derivative of methionine] | RidA showed activity primarily on the imino derivatives of methionine and leucine. |  |  |  |
| B1 |  | 9.1 ± 1.9 mM | 31.9 ± 3.9 nmoles of NADPH consumed min^-1 | 52 min⁻¹ |
